In patent publication US20250326817A1 (LA JOLLA INSTITUTE FOR IMMUNOLOGY, published 2025):

T1: single chain homotrimeric mouse LIGHT extracellular domain (G73-V239), N-terminal HHHHHHGG, joined by two … (mouse, UniProt Q9QYH9 73-239)
T1 construct: Soluble analyte of the Octet assay; from Expi293 cells; also called mLIGHT
T1 sequence: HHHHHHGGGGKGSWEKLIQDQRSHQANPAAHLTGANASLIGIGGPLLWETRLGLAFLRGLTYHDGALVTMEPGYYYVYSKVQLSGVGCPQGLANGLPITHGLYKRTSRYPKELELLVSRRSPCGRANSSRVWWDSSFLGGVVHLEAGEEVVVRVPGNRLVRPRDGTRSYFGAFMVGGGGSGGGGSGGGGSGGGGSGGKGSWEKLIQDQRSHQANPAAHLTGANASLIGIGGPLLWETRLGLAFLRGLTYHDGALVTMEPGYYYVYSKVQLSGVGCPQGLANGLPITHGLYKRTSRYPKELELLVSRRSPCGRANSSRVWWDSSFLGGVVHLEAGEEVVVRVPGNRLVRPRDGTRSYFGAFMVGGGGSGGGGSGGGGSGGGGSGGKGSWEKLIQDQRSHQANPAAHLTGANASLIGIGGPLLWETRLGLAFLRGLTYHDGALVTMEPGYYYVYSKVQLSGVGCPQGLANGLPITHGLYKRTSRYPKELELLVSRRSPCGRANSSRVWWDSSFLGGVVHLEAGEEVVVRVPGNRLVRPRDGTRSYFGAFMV

T2: mouse CD160 residues I30-H154 with C-terminal …, refolded from E. coli inclusion bodies (mouse, UniProt O88875 30-154, biotin (mCD160-biotin in the cell staining assay; site not stated))
T2 construct: range 30-154; also called mCD160; mCD160-biotin
T2 sequence: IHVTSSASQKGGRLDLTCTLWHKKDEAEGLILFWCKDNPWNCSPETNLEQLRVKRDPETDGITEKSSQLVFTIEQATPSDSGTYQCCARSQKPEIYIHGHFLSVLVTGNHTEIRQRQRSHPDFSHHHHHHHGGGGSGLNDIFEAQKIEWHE

T3: mouse BTLA, soluble protein (analyte of the Octet assay) (mouse, UniProt Q7TSA3 30-183, limits assumed)
T3 construct: The construct is not described; also called mBTLA; mBTLA-penta-His-tag
T3 sequence (looked up): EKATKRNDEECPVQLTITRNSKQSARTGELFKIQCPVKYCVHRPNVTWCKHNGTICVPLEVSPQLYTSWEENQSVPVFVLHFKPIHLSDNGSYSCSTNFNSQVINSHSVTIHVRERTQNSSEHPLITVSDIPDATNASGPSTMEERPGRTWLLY

T4: mouse LIGHT, full length, on transfected cells (mouse, UniProt Q9QYH9 1-239)
T4 construct: whole, on cells; also called mLIGHT; mLIGHT-IRES-EGFP
T4 sequence (looked up): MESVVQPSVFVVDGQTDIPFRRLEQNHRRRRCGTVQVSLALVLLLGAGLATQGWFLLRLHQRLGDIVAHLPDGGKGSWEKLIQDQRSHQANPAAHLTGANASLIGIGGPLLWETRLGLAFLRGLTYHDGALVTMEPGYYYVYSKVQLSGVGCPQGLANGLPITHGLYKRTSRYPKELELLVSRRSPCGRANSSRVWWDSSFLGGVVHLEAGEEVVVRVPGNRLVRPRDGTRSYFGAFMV

T5: mouse BTLA, full length, fused to EGFP, on HEK293 FreeStyle cells (mouse, UniProt Q7TSA3 30-306)
T5 construct: whole, on cells; also called mBTLA; mBTLA-EGFP; not shown: EGFP fused at the C-terminus (pEGFP-N1 vector)
T5 sequence (looked up): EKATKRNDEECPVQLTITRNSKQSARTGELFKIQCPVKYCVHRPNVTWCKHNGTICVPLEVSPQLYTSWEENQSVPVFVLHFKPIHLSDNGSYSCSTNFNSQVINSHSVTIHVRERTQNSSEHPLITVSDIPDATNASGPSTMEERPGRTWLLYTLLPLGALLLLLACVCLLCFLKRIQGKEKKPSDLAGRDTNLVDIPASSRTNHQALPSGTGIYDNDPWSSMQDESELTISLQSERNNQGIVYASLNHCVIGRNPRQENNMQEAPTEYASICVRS


Assays:
[1] = biological target: T1, single chain homotrimeric mouse LIGHT …; assay: Octet bio-layer interferometry, mHVEM-hIgG1 on the sensor, LIGHT in solution
Excerpt: (§1) The results were exported and then analyzed using Prism 5 (GraphPad Software). Final response curves were generated after subtracting the responses of the control groups.

[2] = biological target: T1, single chain homotrimeric mouse LIGHT …; assay: Octet bio-layer interferometry, mHVEM-hIgG1 on the sensor, mLIGHT in solution
Excerpt: (§2) Error bars represent results from at least triplicates. […] Ligands BTLA, CD160 and LIGHT are modeled based on the HVEM structures and are shown as labeled surfaces.
as §1

[3] = biological target: T2, mouse CD160 residues I30-H154 with …; assay: Octet bio-layer interferometry, mHVEM-hIgG1 on the sensor, mCD160 in solution
Excerpt: as §2, §1

[4] = biological target: T3, mouse BTLA, soluble protein (analyte of …); assay: Octet bio-layer interferometry, mHVEM-hIgG1 on the sensor, mBTLA in solution
Excerpt: as §2, §1

[5] = biological target: T4, mouse LIGHT, full length, on …; assay: flow cytometry, cell-cell interaction assay
Experimental: (§3) After 2˜3 days, the cells were harvested and diluted to […]. […] These cells were further recorded and analyzed by flow cytometry. […] The cells were incubated for 30 min with shaking at room temperature and washed once by PBS containing 0.2% BSA (PBS-BSA). The cells were re-suspended in 100 uL of PBS-BSA and analyzed by flow cytometry.

[6] = biological target: T5, mouse BTLA, full length, fused to EGFP, …; assay: flow cytometry, cell-cell interaction assay
Experimental: as §3

[7] = biological target: T4, mouse LIGHT, full length, on …; assay: cell-cell flow cytometry (mHVEM-mCherry cells + mLIGHT-IRES-EGFP cells)
Experimental: as §3

[8] = biological target: T5, mouse BTLA, full length, fused to EGFP, …; assay: cell-cell flow cytometry (mHVEM-mCherry cells + mBTLA-EGFP cells)
Experimental: as §3

[9] = biological target: T3, mouse BTLA, soluble protein (analyte of …); assay: cell-protein flow cytometry (mHVEM-mCherry cells + mBTLA-His/anti-His green)
Experimental: as §3

[10] = biological target: T2, mouse CD160 residues I30-H154 with …; assay: cell-protein flow cytometry (mHVEM-mCherry cells + mCD160-biotin/streptavidin-AF488)
Experimental: as §3

| Binder | binding result [5] | binding result [6] | other results |
| --- | --- | --- | --- |
| mouse HVEM (Q39-Q206), wild type, fused to human IgG1 and a hexa-His tag (Fc fusion, From Expi293 cells; also called mHVEM-hIgG1; mHVEMWT; not shown: human IgG1) chain (part 1 of 2): QPSCRQEEFLVGDECCPMCNPGYHVKQVCSEHTGTVCAPCPPQTYTAHANGLSKCLPCGVCDPDMGLLTWQECSSWKDTVCRCIPGYFCENQDGSHCSTCLQHTTCPPGQRVEKRGTHDQDTVCADCLTGTFSLGGTQEECLPWTNCSAFQQEVRRGTNSTDTTCSSQ chain (part 2 of 2): HHHHHH |  |  | Kd [1]: 16.2 nM; Kd [2]: 16.2 nM |
| mouse HVEM (Q39-Q206) G72R-V74A fused to human IgG1 and a hexa-His tag, soluble form (Fc fusion, also called mHVEM^-BT/160; mHVEM-BT/160; not shown: human IgG1) chain (part 1 of 2): QPSCRQEEFLVGDECCPMCNPGYHVKQVCSEHTRTACAPCPPQTYTAHANGLSKCLPCGVCDPDMGLLTWQECSSWKDTVCRCIPGYFCENQDGSHCSTCLQHTTCPPGQRVEKRGTHDQDTVCADCLTGTFSLGGTQEECLPWTNCSAFQQEVRRGTNSTDTTCSSQ chain (part 2 of 2): HHHHHH |  |  | binding result [3]: no binding; Kd [1]: 29.3 nM; binding result [4]: no binding; Kd [2]: 29.3 nM |
| mouse HVEM G72D, full length, fused to mCherry, on cells (receptor, also called mHVEM G72D; not shown: mCherry fused at the C-terminus (pmCherry-N1 vector)) QPSCRQEEFLVGDECCPMCNPGYHVKQVCSEHTDTVCAPCPPQTYTAHANGLSKCLPCGVCDPDMGLLTWQECSSWKDTVCRCIPGYFCENQDGSHCSTCLQHTTCPPGQRVEKRGTHDQDTVCADCLTGTFSLGGTQEECLPWTNCSAFQQEVRRGTNSTDTTCSSQVVYYVVSILLPLVIVGAGIAGFLICTRRHLHTSSVAKELEPFQEQQENTIRFPVTEVGFAETEEETASN | binds |  |  |
| mouse HVEM M56D, full length, fused to mCherry, on cells (receptor, also called mHVEM M56D; not shown: mCherry fused at the C-terminus (pmCherry-N1 vector)) QPSCRQEEFLVGDECCPDCNPGYHVKQVCSEHTGTVCAPCPPQTYTAHANGLSKCLPCGVCDPDMGLLTWQECSSWKDTVCRCIPGYFCENQDGSHCSTCLQHTTCPPGQRVEKRGTHDQDTVCADCLTGTFSLGGTQEECLPWTNCSAFQQEVRRGTNSTDTTCSSQVVYYVVSILLPLVIVGAGIAGFLICTRRHLHTSSVAKELEPFQEQQENTIRFPVTEVGFAETEEETASN | binds | binds |  |
| mouse HVEM L90A, full length, fused to mCherry, on cells (receptor, also called mHVEM L90A; not shown: mCherry fused at the C-terminus (pmCherry-N1 vector)) QPSCRQEEFLVGDECCPMCNPGYHVKQVCSEHTGTVCAPCPPQTYTAHANGASKCLPCGVCDPDMGLLTWQECSSWKDTVCRCIPGYFCENQDGSHCSTCLQHTTCPPGQRVEKRGTHDQDTVCADCLTGTFSLGGTQEECLPWTNCSAFQQEVRRGTNSTDTTCSSQVVYYVVSILLPLVIVGAGIAGFLICTRRHLHTSSVAKELEPFQEQQENTIRFPVTEVGFAETEEETASN |  | binds |  |
| mouse HVEM G72R-V74A double mutein, full length, fused to mCherry, on cells (receptor, also called mHVEM G72R-V74A; mHVEM^-BT/160; not shown: mCherry fused at the C-terminus (pmCherry-N1 vector)) QPSCRQEEFLVGDECCPMCNPGYHVKQVCSEHTRTACAPCPPQTYTAHANGLSKCLPCGVCDPDMGLLTWQECSSWKDTVCRCIPGYFCENQDGSHCSTCLQHTTCPPGQRVEKRGTHDQDTVCADCLTGTFSLGGTQEECLPWTNCSAFQQEVRRGTNSTDTTCSSQVVYYVVSILLPLVIVGAGIAGFLICTRRHLHTSSVAKELEPFQEQQENTIRFPVTEVGFAETEEETASN |  |  | binding result [7]: binds; binding result [8]: no binding; binding result [9]: no binding; binding result [10]: no binding |
| mouse HVEM H86D, full length, fused to mCherry, on cells (receptor, also called mHVEM H86D; not shown: mCherry fused at the C-terminus (pmCherry-N1 vector)) QPSCRQEEFLVGDECCPMCNPGYHVKQVCSEHTGTVCAPCPPQTYTADANGLSKCLPCGVCDPDMGLLTWQECSSWKDTVCRCIPGYFCENQDGSHCSTCLQHTTCPPGQRVEKRGTHDQDTVCADCLTGTFSLGGTQEECLPWTNCSAFQQEVRRGTNSTDTTCSSQVVYYVVSILLPLVIVGAGIAGFLICTRRHLHTSSVAKELEPFQEQQENTIRFPVTEVGFAETEEETASN |  | binds |  |
| mouse HVEM L94D, full length, fused to mCherry, on cells (receptor, also called mHVEM L94D; not shown: mCherry fused at the C-terminus (pmCherry-N1 vector)) QPSCRQEEFLVGDECCPMCNPGYHVKQVCSEHTGTVCAPCPPQTYTAHANGLSKCDPCGVCDPDMGLLTWQECSSWKDTVCRCIPGYFCENQDGSHCSTCLQHTTCPPGQRVEKRGTHDQDTVCADCLTGTFSLGGTQEECLPWTNCSAFQQEVRRGTNSTDTTCSSQVVYYVVSILLPLVIVGAGIAGFLICTRRHLHTSSVAKELEPFQEQQENTIRFPVTEVGFAETEEETASN |  | binds |  |
| mouse HVEM R43D, full length, fused to mCherry, on cells (receptor, also called mHVEM R43D; not shown: mCherry fused at the C-terminus (pmCherry-N1 vector)) QPSCDQEEFLVGDECCPMCNPGYHVKQVCSEHTGTVCAPCPPQTYTAHANGLSKCLPCGVCDPDMGLLTWQECSSWKDTVCRCIPGYFCENQDGSHCSTCLQHTTCPPGQRVEKRGTHDQDTVCADCLTGTFSLGGTQEECLPWTNCSAFQQEVRRGTNSTDTTCSSQVVYYVVSILLPLVIVGAGIAGFLICTRRHLHTSSVAKELEPFQEQQENTIRFPVTEVGFAETEEETASN | binds | binds |  |
| mouse HVEM V74D, full length, fused to mCherry, on cells (receptor, also called mHVEM V74D; not shown: mCherry fused at the C-terminus (pmCherry-N1 vector)) QPSCRQEEFLVGDECCPMCNPGYHVKQVCSEHTGTDCAPCPPQTYTAHANGLSKCLPCGVCDPDMGLLTWQECSSWKDTVCRCIPGYFCENQDGSHCSTCLQHTTCPPGQRVEKRGTHDQDTVCADCLTGTFSLGGTQEECLPWTNCSAFQQEVRRGTNSTDTTCSSQVVYYVVSILLPLVIVGAGIAGFLICTRRHLHTSSVAKELEPFQEQQENTIRFPVTEVGFAETEEETASN | binds |  |  |
| mouse HVEM L94A, full length, fused to mCherry, on cells (receptor, also called mHVEM L94A; not shown: mCherry fused at the C-terminus (pmCherry-N1 vector)) QPSCRQEEFLVGDECCPMCNPGYHVKQVCSEHTGTVCAPCPPQTYTAHANGLSKCAPCGVCDPDMGLLTWQECSSWKDTVCRCIPGYFCENQDGSHCSTCLQHTTCPPGQRVEKRGTHDQDTVCADCLTGTFSLGGTQEECLPWTNCSAFQQEVRRGTNSTDTTCSSQVVYYVVSILLPLVIVGAGIAGFLICTRRHLHTSSVAKELEPFQEQQENTIRFPVTEVGFAETEEETASN |  | binds |  |
